Data from US20210155689A1 (SHANGHAI PHARMAEXPLORER, published 2021).
Primed or numbered codes have the meaning given here. No end group written: not given here. Biotin′ = biotin label at the C-terminus

Key:
[1] = target: T1, human LAG-3 (full length, on the cell surface) (human, UniProt P18627 23-525); experiment: FACS, HEK293-hLAG-3; 1.600 nM
T1 construct: Full-length human LAG-3 expressed on cells; also called HEK293-hLAG-3; HEK293 cells transfected with LAG-3 gene
T1 sequence: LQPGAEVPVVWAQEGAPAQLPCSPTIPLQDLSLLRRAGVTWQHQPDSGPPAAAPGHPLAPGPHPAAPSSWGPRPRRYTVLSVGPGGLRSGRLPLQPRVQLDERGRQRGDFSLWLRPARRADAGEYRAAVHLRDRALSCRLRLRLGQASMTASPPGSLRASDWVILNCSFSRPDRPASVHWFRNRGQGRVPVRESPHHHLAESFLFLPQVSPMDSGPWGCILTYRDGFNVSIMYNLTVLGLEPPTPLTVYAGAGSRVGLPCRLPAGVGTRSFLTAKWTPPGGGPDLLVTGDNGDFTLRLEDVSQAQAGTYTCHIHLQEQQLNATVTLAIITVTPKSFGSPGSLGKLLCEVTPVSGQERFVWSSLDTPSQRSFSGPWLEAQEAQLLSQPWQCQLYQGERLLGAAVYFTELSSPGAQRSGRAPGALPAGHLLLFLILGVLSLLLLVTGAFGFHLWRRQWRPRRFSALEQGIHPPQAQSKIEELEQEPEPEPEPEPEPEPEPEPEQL
Excerpt: The pIRES plasmid with the monkey-derived full-length gene was transfected into the HEK293 cell line to construct a HEK293 stable cell line containing monkey LAG-3 (herein referred to as HEK293-cLAG-3 stable cell line). The HEK293-hLAG-3 stable cell line and HEK293-cLAG-3 stable cell line were expanded in a T-75 cell culture flask to a 90% confluence. The medium was aspirated, and the cells were washed with HBSS (Hanks' Balanced Salt Solution) 1-2 times, then treated with a enzyme-free cell dissociation fluid (Versene solution: Life technology) and the cells were collected. The cells were washed with HBSS buffer for 1-2 times. After counted, the cells were diluted with HBSS to 1-2×10⁶ cells per ml, added with 1% goat serum blocking solution, incubated on ice for 20-30 minutes, and then washed with HBSS for 2 times by centrifugation. The collected cells were suspended in the FACS buffer (HBSS+1% BSA) to 2×10⁶ cells/ml, added as 100 microliters per well to a 96-well FACS reaction plate, added with 100 microliters per well of the antibody sample to be tested, incubated on ice for 1-2 hours. The plate was washed twice with the FACS buffer by centrifugation, added with 100 microliters of fluorescent (Alexa 488)-labeled secondary antibodies per well, and incubated on ice for 0.5-1.0 hours. The plate was washed 2-3 times with FACS buffer by centrifugation, added with 100 μl fixative solution (4% Paraformaldehyde) per well to suspend the cells. 5-10 minutes later, it was washed 1-2 times with FACS buffer by centrifugation. The cells were suspended with 100 microliters of FACS buffer, FACS (FACSCalibur, BD) was used for detection and the results were analyzed.

PSSWGPRPRRYTK-Biotin = target: T2, PSSWGPRPRRYTK-Biotin (human); experiment: peptide scanning ELISA, biotin peptide on streptavidin
T2 construct: Overlapping peptide of the outer loop of human LAG-3; also called LAG-3 Extra cyclic peptide
T2 peptide: PSSWGPRPRRYTK-{Biotin′}
Method: Fifteen overlapping peptides including the full length of the outer loop sequence were prepared and biotin was coupled to each C-terminus. Enzyme-linked immunosorbent assay (ELISA) was used to detect the binding of antibodies to these peptides. Streptavidin (sigma, Cat #M5432) was diluted with PBS to a final concentration of 1.0 μg/ml, and then added as 100 μl per well to a 96-well ELISA plate. The plate was sealed with plastic film and incubated overnight at 4° C. The plate was washed 2 times with the plate washing solution (PBS+0.01% Tween20) on the next day, and added with the blocking solution (PBS+0.01% Tween20+1% BSA) and blocked at room temperature for 1-2 hours. The blocking solution was poured off, and biotinylated peptides was added to a final concentration of 1 ug/ml, as 100 ul per well to the 96-well ELISA plate, incubated at 37° C. for 1-2 hours, then washed with plate washing solution (PBS+0.01% Tween20)2-3 times. Then the antibody samples to be tested were incubated as 100 μl per well at 37° C. for 1-2 hours, and then the plate was washed 2-3 times with a plate washing solution (PBS+0.01% Tween20). HRP (horseradish peroxidase) labeled secondary antibody was added, and the plate was incubated at 37° C. for 1-2 hours, and washed 2-3 times with a plate washing solution (PBS+0.01% Tween20). 100 μl of TMB substrate was added to each well. After incubated at room temperature for 15-30 minutes, the plate was added with 100 μl of stop solution (1.0N HCl) to each well.

Row | Mean fluorescence intensity [1] [MFI] | binding result (PSSWGPRPRRYTK-Biotin) | Binder
1 | 55.6 | binds | 409B11E12 (mouse antibody purified from hybridoma) (antibody, V domains shown, also called mAb104-409B11E12) VH: QVQLQQSGAELVRPGASVTLSCKASGYTFTDYEMHWVKQTTVHGLEWIGATDPETSYSAYNQKFKGKAILTADKSSSTAYMELRSLTSEDSAVYYCIATGWNDWGQGTSLTVSS VL: DLKMTQSPSSMYASLGERVTITCKASQDINSYLSWFQQKPGKSPKTLIYRANRLLDGVPSRFSGSGSGQDYSLTISSLEYEDMGIYYCLQYDEFPYTFGGGTKLEIK
2 | 86.2 | binds | 105F1E10 (mouse antibody purified from hybridoma) (antibody, V domains shown, also called mAb009-105F1E10) VH: EVQLQQSGPELVKPGASVKMSCRASGYTFTDFKMHWMKQSHGKSLEWIGYIAPNNGGTAYNQKFRGKATLTVNESSNTAYMELRSLTSEDSAVYYCVDWDDVDYWGQGTTLTVSS VL: DIKMTQSPSSMYASLGERVTITCKASQDINSYLSWFQQKSGKSPKTLIYRANRLVDGVPSRFSGSGSGQDYSLTISSLEYEDMGIYYCLQYVEFPLTFGAGTKLELK
3 | 48 | binds | 409D4E10 (mouse antibody purified from hybridoma) (antibody, V domains shown, also called mAb112-409D4E10) VH: QVQLQQSGAELVRPGASVTLSCKASGNTFTDYEMHWVKQTPVHGLEWIGATDPETDNTAYNQKFKGKAILTTDKSSSTAYMELRSLTSEDSAVYYCITSGWNDWGQGTSLTVSS VL: DIKMTQSPSSMYASLGERVTITCKASQDINSYLSWFQQKPGKSPKTLIYRANRLLDGVPSRFSGSGSGQDYSLTISSLEYEDMGIYYCLQYNEFPYTFGGGTKLEIK
